Data as given in the nanobody polyreactivity screen of Harvey et al. (2022).

Assay: yeast display, Sf9 membrane polyspecificity reagent, FACS + sequencing; frameworks hold sequencing errors
Summary of the method: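 Using colony PCR, genes from sorted yeast display clones were amplified, then sequenced on MiSeq at 2 × 250 and filtered by CDR length. The clones had been stained with 10% biotinylated, detergent-solubilized Sf9 membrane reagent for 1 hour at 4 °C and sorted by FACS into low and high (top ~1%) gates on anti-HA and streptavidin fluorescence. Polyreactivity labels come from the gate of origin.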

Row | Sequence | polyreactivity (PSR sort gate)
1 | QVQLVESGGGLVQAGGSLRLSCAASGRTFSRNTMGWYRQAPGKERELVAAIRSGGRTDYADSVKGRFTISRDNAKNTVYLQMNSLKPEDTAVYYCATVAGVSRWRGGYWGQGTQVTVSS | low polyreactivity
2 | QVQLVESGGGLVQAGGSLRLSCAASGRTFSRYAMGWSRQAPGKERELVASITSRGGSTYYADSVKGRFTISRDNAKNTVYLQMNSLKPEDTAVYYCNVKPTYSTRYWEDYWGQGTQVTVSS | high polyreactivity
3 | QVQLVESGGGLVQAGGSLRLSCAASGRTFSRYAMGWYRPAPGKERELVAAISWRGSSTYYADSVKGRFTISRDNAKNTVYLQMNSLKPEYTAVYYCNTVTYPYVPALFDYWGQGTQVTVSS | high polyreactivity
4 | QVQLVESGGGLVQAGGSLRLSCAASGRTFSRYAMGWYRQAPGKERELVAAISRGGGSTNYADSVKGRFTISRDNAKNTVYLQMNSLKPEDTAVYYCASEYRYDWYTYGSWGQGTQVTVSS | high polyreactivity
5 | QVQLVESGGGLVQAGGSLRLSCAASGRTFSRYAMGWYRQAPGKERELVAAISRSGGITYYADSVKGRFTISRDYAKNTVYLQMNSLKPEDTAVYYCAKVYPRVGYDYWGQGTQVTVSS | high polyreactivity
6 | QVQLVESGGGLVQAGGSLRLSCAASGRTFSRYAMGWYRQAPGKERELVAAITRSGGSTYYADSVKGRFTISRDNAKNTVYLQMNSLKPEDTAVYYCATERNLRNYDYWGQGTQVTVSS | high polyreactivity
7 | QVQLVESGGGLVQAGGSLRLSCAASGRTFSRYAMGWYRQAPGKERELVAAITWSGGRTYYADSVKGRFTISSDNAKNTVYLQMNSLKPEDTAVYYCAASYRCYKHADPLYNYWGQGTQVTVSS | low polyreactivity
8 | QVQLVESGGGLVQAGGSLRLSCAASGRTFSRYAMGWYRQAPGKERELVAAITYSGGRTYYADSVKGRFTISRDNAKNTVYLQMNSLKPEDTAVYYCAKGTTSDPGYGYWGQGTQVTVSS | low polyreactivity
9 | QVQLVESGGGLVQAGGSLRLSCAASGRTFSRYAMGWYRQSPGKERELVAAITSGGGSTYYADSVKGRFTISRDNAKNTVYLQMNSLKPEDTAVYYCAVRSAPIVYVYVASWWSLYDYWGQGTQVTVSS | low polyreactivity
10 | QVQLVESGGGLVQAGGSLRLSCAASGRTFSRYAMGWYRRAPGKERELVAAITKSGGSTYYADSVKGRFTISRDNAKITVYLQMNSLKPEDTAVYYCAVRYGGRFFRKYDYWGQGTQVTVSS | high polyreactivity
11 | QVQLVESGGGLVQAGGSLRLSCAASGRTFSRYVMGWYRQAPGKERELVATISRSGGSTFYADSVKGRFTISRDTAKNTVYLQMNSLKPEDTAVYYCNKKVQGYQVTYGYCGQGTQVTVSS | high polyreactivity
12 | QVQLVESGGGLVQAGGSLRLSCAASGRTFSSNAMGWYRQAPGKERELVASISFRGGRTYYADSVKGRFTISRDNAKNTVYLQMNSLKPVDTAVYYCATAYYYFSPSRADGEYWGQGTQVTVSS | high polyreactivity
13 | QVQLVESGGGLVQAGGSLRLSCAASGRTFSSYAMGGYRKAPGKERELVAAISKRGVRTSYADSVKGRFTISRDNAKNTVYLQMNRLKPEDTAVYYCNATLGRTTAVFKYYWGQGTQVTVSS | high polyreactivity
14 | QVQLVESGGGLVQAGGSLRLSCAASGRTFSSYTMGWYRQAPGKEREMVAAISKSGASTYYADSVKGRFTISRDNAKNTVYLQMNSLKPEDTAVYYLAARAYPFKIDGYWGQGTQVTVSS | high polyreactivity
15 | QVQLVESGGGLVQAGGSLRLSCAASGRTFSTNAMGLYRQAPGKEREFVAAITGSGGSTYYADSVKGRFTISRDNAKNTVYLQINSLKPEDTAVYYCAKRSAWHTYRYGYWGQGTQVTVSS | high polyreactivity
16 | QVQLVESGGGLVQAGGSLRLSCAASGRTFSTNAMGWYRQAPGKERELVAAISASGGSTYYADSVKGRFTISRDNAKNTVYLQMNSLKPEDTAVYYCAAYPGQWRTGYDYWGQGTQVTVSS | high polyreactivity
17 | QVQLVESGGGLVQAGGSLRLSCAASGRTFSTNAMGWYRQAPGKERELVAAITSRGGSTYYADSVKGRFTISRDNAKNTVYLQMNSLKPEDPAVYYCAVDPLYYKTHYGTLGYYYLGQGTQVTVSS | low polyreactivity
18 | QVQLVESGGGLVQAGGSLRLSCAASGRTFSTYAMGWYRQAPGKERELFAAISSGGGRTYYADSVKGRFTISRDNAKNTVYLQMNSLKPEDTAVYYCAADRYFRSRRSYEYWGQGTQVTVSS | low polyreactivity
19 | QVQLVESGGGLVQAGGSLRLSCAASGRTFSTYAMGWYRQATGKERELVAAIRSGGSTYYADSVKGRFTISRDNAKNTVYLQMNSLKPEDTAVYYCNALPRPSIFRYDYWGQGTQVTVSS | high polyreactivity
20 | QVQLVESGGGLVQAGGSLRLSCAASGRTFSVNAMGWYRQAPGKEREFVAAITGSTGSTFYADSVKGRFTISRDNAKNSVYLQMNSLKPDDTAVYYCAAGPWFYYWGQGTQVTVSS | low polyreactivity
21 | QVQLVESGGGLVQAGGSLRLSCAASGRTFSVNAMGWYRQAPGKERELVAAISWDGGSTYYADSVKGRFTISRDNAKNTVYLQMNSLKPEDTAVYYCNADYSIPGYYWPYDYWGQGTQVTVSS | low polyreactivity
22 | QVQLVESGGGLVQAGGSLRLSCAASGRTFSVNDMGRYRQAPGKEREMVAAISFSGGSTYYADSVKGRFTISRDDAKNTVYLQMNSLKPEDTAVYYCAAEAYPSWFYVITGFGIYDYWGQGTQVTVSS | high polyreactivity

Row | Sequence | polyreactivity (PSR sort gate)
23 | QVQLVESGGGLVQAGGSLRLSCAASGRTFSVNDMGWYRQAPGKERELVAAISFSGGSTYYADSVKGRFTISRDNAKNTVYLQMNSLKPEDTAVYYCAAEAYPSWFYVITGFGIYDYWGQGTQVTVSS | high polyreactivity
24 | QVQLVESGGGLVQAGGSLRLSCAASGRTFSVNDMGWYRQAPGKERELVAAISFSGGSTYYADSVKGRFTISRDNAKNTVYLQMNSLKPEDTAVYYCAARVRWWSPGGYWGQGTQVTVSS | high polyreactivity
25 | QVQLVESGGGLVQAGGSLRLSCAASGRTFSVYAMGWYRQAPGKERELVAAIRTSGGITYYADSVKGRFTISRDNAKNTVYLQMNSLKPEDTAVYYCAAETFRPYSYTRYYYWGQGSQVTVSS | high polyreactivity
26 | QVQLVESGGGLVQAGGSLRLSCAASGRTFSWNAMGWYRQAPGKERELVAAISNSGGSTYYADSVKGRFTISRHNAKNPVYLQMNSLKPEDTAVYYCAADDIYKYYQYYAFPYYRYDYWGQGTQVTVSS | low polyreactivity
27 | QVQLVESGGGLVQAGGSLRLSCAASGRTFSWYAMGGYRQAPGTERELVASISRGGSKSYADSVKGRFTISRDNAKNTVYLQMNSLKPEYTAVYYCAAGGFARTISYYWGQGTQVTVSS | high polyreactivity
28 | QVQLVESGGGLVQAGGSLRLSCAASGRTFSYNAIGWYRLAPGKERELVARISSGGSTNYADSVKGRFTISRDNAKNTVYLQMNSLKPEDTAVYYCNAVYRTYEYYWGQGTQVTVSS | high polyreactivity
29 | QVQLVESGGGLVQAGGSLRLSCAASGRTFSYNAMGWYRQAPGKERELVASISSSGTSTSYADSVKGRFTISRDNAKNTVYLQMNSLKPEDTAVYYCATVRYPYWYSGPQNSRGYWGQGTQVTVSS | high polyreactivity
30 | QVQLVESGGGLVQAGGSLRLSCAASGRTFSYYAMGWSRQAPGKERELVATIRFSGGGTYYADSVKGRFTISRDNAKNTVYLLMNSLKPEATAVYYCAALNYHKFAHKYDYWGQGTQVTVSS | low polyreactivity
31 | QVQLVESGGGLVQAGGSLRLSCAASGRTFSYYAMGWYRKAPGKERELVAAFSGRGASTYYADSVKGRFTISRDNAKNTVYVQMNSLKPEDTAVYYCNAVPYYQYEYWGQGTQVTVSS | low polyreactivity
32 | QVQLVESGGGLVQAGGSLRLSCAASGRTFSYYAMGWYRQAPGKEREFVAAISSTGTSTYYADSVKGRFTISRDTAKNTVYLQKNSLKPEDTAVYYCNARLATYRLHSKFYYWGQGTQVTVSS | high polyreactivity
33 | QVQLVESGGGLVQAGGSLRLSCAASGRTFSYYAMGWYRQAPGKERELVAAISWRGGSTYYADSVKGRFTISRDNAKNTVYLQMNSLKPEDTAVYYCAALPRYALGEDYWGQGTQVTVSS | high polyreactivity
34 | QVQLVESGGGLVQAGGSLRLSCAASGRTFSYYAMGWYRQAPGKERELVARITYRGGRTYYADSVKGRFTISRDNAKNTVYLQMNSLKPEDTAVYYCNADAINKRGGLDYWGQGTQVTVSS | high polyreactivity
35 | QVQLVESGGGLVQAGGSLRLSCAASGRTFSYYAMGWYRQAPGKERSLVAAISWSGGRTYYADSVKGRFTISRDNAKNTVYLQMNSLKPEDTAVYYCAARYVYPYWYGDYYWGQGTQVTVSS | low polyreactivity
36 | QVQLVESGGGLVQAGGSLRLSCAASGRTFSYYTMGWYRQAPGKERELVARISNRGTNTYYADSVKGRFTISRDNAKNTVYLQMNSLKPEDTAVYYCNTEDFFNVPEMDSWGQGTQVTVSS | low polyreactivity
37 | QVQLVESGGGLVQAGGSLRLSCAASGRTFSYYVMGWYRQAAGKERELVAAISRTTRTYYADSVKGRFSISRDNAKNTVYLHMNSLKPEDTAVYYCAADFPKGHYHYWGHGTQVTVSS | high polyreactivity
38 | QVQLVESGGGLVQAGGSLRLSCAASGRTFTFNAMGWYRQAPGKETELVAAISTSGGSTYYADSVKGRFTISRDNAKNTVYLQMNSLKPEDTAVYYCNTYPYYRAGGSDYWGQGTQVTVSS | high polyreactivity
39 | QVQLVESGGGLVQAGGSLRLSCAASGRTFTFYTMGWYRQAPGKERELVAAITSGGSTYYADSVKGRFTISRDNAKNTVYLQMNSLKPEDTAVYYCAAKYYYTYYYWGQGTQVTVSS | high polyreactivity
40 | QVQLVESGGGLVQAGGSLRLSCAASGRTFTGNTMGWYRQAPGKERELVAAISSSGGRTYYADSVKGRFTISRDNAKNTVYLQMNSLKQVDTAVYYCNATIWRTQYGYWGQGTQVTVSS | high polyreactivity
41 | QVQLVESGGGLVQAGGSLRLSCAASGRTFTGNVMGWYIKAPGKERELVAAISRSGTSTYYADSVKGRFTISRDNAKNTVYLQMNSRKPEDTAVYYCAARRTAGYRSAEYDYWGQGTQVTVSS | high polyreactivity
42 | QVQLVESGGGLVQAGGSLRLSCAASGRTFTGYAMGWYRQAPGKERELVAAISSRVGSTYYADSVKGRFTISRDNAKNTVYLQMNSLKPEDTAVYYCAKDSQSYTREAYYYWGQGTQVTVSS | low polyreactivity
43 | QVQLVESGGGLVQAGGSLRLSCAASGRTFTGYAMGWYRQAPGKERELVAAITRSGTRTYYADSVKGRFTISRDNAKNTVYLQMNSLKPEDTAVYYCAAADTQGVSMDYWGQGTQVTVSS | high polyreactivity
